Tests used:
Aβ1-42 = assay: method only given as 'essentially as described above' (KD=Kd/Ka)
[1] = target: T1, β-amyloid peptide (1-42) conjugated to BSA (C-terminal Cys43 coupled to maleimide-activated bovine serum albumin); assay: competition ELISA on coated Aβ1-42-BSA against biotinylated Mu266, first set of three experiments
T1 construct: Coated on the ELISA plate; BSA carrier not written as a chain; also called Aβ1-42-BSA conjugate; Aβ1-42-Cys-BSA conjugate
Experimental: (§1) The Aβ₁₋₄₂-BSA conjugate was prepared by dissolving 7.5 mg of Aβ₁₋₄₂-Cys₄₃ (C-terminal cysteine Aβ₁₋₄₂, AnaSpec) in 500 μL of dimethylsulfoxide, and then immediately adding 1,500 μL of distilled water. Two (2) milligrams of maleimide-activated bovine serum albumin (Pierce) was dissolved in 200 μL of distilled water. The two solutions were combined, thoroughly mixed, and allowed to stand at room temperature for two (2) hours. A gel chromatography column was used to separate unreacted peptide from Aβ₁₋₄₂-Cys-BSA conjugate.
(§2) After washing the wells with phosphate buffered saline (PBS) containing 0.1% Tween 20 (Washing Buffer) using an ELISA plate washer, the wells were blocked by adding 300 μL of SuperBlock reagent (Pierce) per well. After 30 minutes of blocking, the wells were washed Washing Buffer and excess liquid was removed.
(§3) As a background control, 100 μl of ELISA Buffer was added. The ELISA plate was incubated at room temperature for 90 min. After washing the wells with Washing Buffer, 100 μl of 1 μg/ml HRP-conjugated streptavidin (Cat #21124, Pierce) was added to each well. […] Absorbance was read at 415 nm. The absorbances were plotted against the log of the competitor concentration, curves were fit to the data points (using Prism) and the IC50 was determined for each antibody using methods well-known in the art.

[2] = target: T1, β-amyloid peptide (1-42) conjugated to …; assay: competition ELISA on coated Aβ1-42-BSA against biotinylated Mu266, second set of three experiments
Experimental: as §1, §2, §3

[3] = target: T2, aggregate tau fibrils purified from AD brain homogenates (human, UniProt P10636-8 2-441, limits assumed); assay: ELISA on coated tau fibrils purified from AD brain
T2 construct: Brain-derived aggregates; also called Purified AD Tau Fibrils; purified tau fibrils

human tau aggregates = target: T3, human tau aggregates (human, UniProt P10636 2-758); assay: SPR (BIACORE 2000), antibody captured on protein A, 1:1 fit
T3 construct: also called fibril tau; tau fibril aggregate
Experimental: (§4) Except as noted, all reagents and materials are from BIACORE® AB (Upsala, Sweden). A CM5 chip containing immobilized protein A (generated using standard NHS-EDC amine coupling) on all four flow cells (FC) is used to employ a capture methodology. Antibody samples are prepared at 0.5 μg/mL by dilution into running buffer. Monomeric tau and fibril tau are prepared to concentrations of 2000, 1000, 500, 250, 125, 62.5, 31.25, 15.63, 7.82, 3.91, 1.95, and 0 (blank) nM by dilution into running buffer. Each analysis cycle consists of: (1) capturing antibody samples on separate flow cells (FC2, FC3, and FC4); (2) injection of 250 μL (300 sec) of either monomeric tau or tau fibril aggregate over respective FC at a rate of 50 μL/min; (3) return to buffer flow for 20 mins. to monitor dissociation phase; (4) regeneration of chip surfaces with 25 μL (30 sec) injection of glycine, pH1.5; (5) equilibration of chip surfaces with a 50 μL (60 sec) injection of HBS-EP+.
Data of binding to tau aggregate is processed using standard double-referencing and fit to a 1:1 binding model using Biacore 2000 Evaluation software, version 4.1, to determine the association rate (kₒₙ, M⁻¹s⁻¹ units), dissociation rate (koff, s⁻¹ units), and Rₘₐₓ (RU units). The equilibrium dissociation constant (KD) was calculated from the relationship KD=koff/kₒₙ, and is in molar units. […] Therefore, KD for binding to monomeric tau is obtained by using a steady state binding fit model from plotting the concentration of antigen versus the response unit.

[4] = target: T4, human monomeric (native or non-aggregate) tau (human, UniProt P10636 2-758); assay: SPR (BIACORE 2000), antibody captured on protein A, steady state fit
T4 construct: also called Monomeric Tau; monomeric tau
Experimental: as §4
Data of binding to tau aggregate is processed using standard double-referencing and fit to a 1:1 binding model using Biacore 2000 Evaluation software, version 4.1, to determine the association rate (kₒₙ, M⁻¹s⁻¹ units), dissociation rate (koff, s⁻¹ units), and Rₘₐₓ (RU units). The equilibrium dissociation constant (KD) was calculated from the relationship KD=koff/kₒₙ, and is in molar units. […]

T3 sequence (P10636 other isoform, or with tags, fused parts or gaps limits assumed): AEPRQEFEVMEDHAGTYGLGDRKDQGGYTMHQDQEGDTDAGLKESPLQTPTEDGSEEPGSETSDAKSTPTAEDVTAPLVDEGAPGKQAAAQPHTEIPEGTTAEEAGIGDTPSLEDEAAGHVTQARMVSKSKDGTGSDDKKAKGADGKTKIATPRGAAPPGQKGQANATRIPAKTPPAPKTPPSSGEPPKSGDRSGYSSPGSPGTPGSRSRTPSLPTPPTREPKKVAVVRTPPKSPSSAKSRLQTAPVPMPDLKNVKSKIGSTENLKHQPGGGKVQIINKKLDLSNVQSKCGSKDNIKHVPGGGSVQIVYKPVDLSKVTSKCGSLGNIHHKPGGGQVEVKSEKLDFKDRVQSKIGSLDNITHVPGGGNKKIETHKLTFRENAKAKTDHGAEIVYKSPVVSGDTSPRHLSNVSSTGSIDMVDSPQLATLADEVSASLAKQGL
T2 sequence (P10636 other isoform, or with tags, fused parts or gaps limits assumed): as above
T4 sequence (P10636 other isoform, or with tags, fused parts or gaps limits assumed): as above

Kd (Aβ1-42)	IC50 [1]	IC50 [2]	EC50 [3]	Kd (human tau aggregates)	koff (human tau aggregates)	kon (human tau aggregates)	Kd [4]	Binder
4 pM	7.5 µg/mL	4 µg/mL						humanized 266 antibody (Hu266) (antibody, human IgG1, kappa, V domains shown, Mature antibody expressed from pVk-Hu266 and pVg1-Hu266 in Sp2/0 cells; also called exemplified anti-Aβ antibody) VH: EVQLVESGGGLVQPGGSLRLSCAASGFTFSRYSMSWVRQAPGKGLELVAQINSVGNSTYYPDTVKGRFTISRDNAKNTLYLQMNSLRAEDTAVYYCASGDYWGQGTLVTVSS VL: DVVMTQSPLSLPVTLGQPASISCRSSQSLIYSDGNAYLHWFLQKPGQSPRLLIYKVSNRFSGVPDRFSGSGSGTDFTLKISRVEAEDVGVYYCSQSTHVPWTFGQGTKVEIKR
			6.8 pM	< 220 pM	< 1e-05 s⁻¹	45900 M⁻¹ s⁻¹	235000 pM	Exemplified anti-Tau antibody (having both HCs of SEQ ID NO.68 and both LCs of SEQ ID NO.67) (antibody, human IgG4 S228P, kappa, F234A L235A, V domains shown, also called Exemplified anti-Tau mAb; exemplified tau monoclonal antibody) VH: EVQLVQSGAEVKKPGESLKISCKGSGYTFSNYWIEWVRQMPGKGLEWMGEILPGSDSIKYEKNFKGQVTISADKSISTAYLQWSSLKASDTAMYYCARRGNYVDDWGQGTLVTVSS VL: EIVLTQSPGTLSLSPGERATLSCRSSQSLVHSNQNTYLHWYQQKPGQAPRLLIYKVDNRFSGIPDRFSGSGSGTDFTLTISRLEPEDFAVYYCSQSTLVPLTFGGGTKVEIKR
